Data from US20130079280A1 (MEDLMMUNE, published 2013).
Like-named read-outs stand apart in the source and are kept apart here.

Key:
[1] = biological target: T1, human TRAIL R2 on the cell surface (H2122, Colo205, Jurkat and other tumor cell lines) (human, UniProt O14763 56-440); experiment: cell-based or functional assay
[2] = biological target: T2, human TRAIL R2-Fc fusion protein (human, UniProt O14763 54-182, limits assumed, biotinylated in the competition ELISA of Example 3); experiment: competition ELISA; plate coated with A9(1C12), 0.75 nM biotinylated TRAIL R2-Fc
T2 construct: also called biotinylated TRAIL R2-Fc; soluble TRAIL R2-Fc; not shown: Fc part
Protocol: Plates were blocked with PBS 0.1% Tween 20+10 mg/ml BSA. […] Absorbance was read at 450 nm.

[3] = biological target: T1, human TRAIL R2 on the cell surface …; experiment: cell-based or functional assay; remark: listed apart in the source
[4] = biological target: T1, human TRAIL R2 on the cell surface …; experiment: cell-based or functional assay; remark: listed apart in the source
[5] = biological target: T2, human TRAIL R2-Fc fusion protein; experiment: competition ELISA: plate coated with F4 mod 1, 0.75 nM human TRAIL R2-Fc, purified monomer as competitor
[6] = biological target: T2, human TRAIL R2-Fc fusion protein; experiment: competition ELISA: plate coated with F4 mod 1, human TRAIL R2-Fc, monomer as competitor
[7] = biological target: T2, human TRAIL R2-Fc fusion protein; experiment: competition ELISA; F4 mod 1 coated plate, human TRAIL R2-Fc
cynomolgus TRAIL R2-Fc [8] = biological target: T3, cynomolgus TRAIL R2-Fc (cynomolgus monkey (Macaca fascicularis)); experiment: competition ELISA; F4 mod 1 coated plate, cyno TRAIL R2-Fc
T3 construct: the ELISAs used the Fc fusion; also called cyno TRAIL R2-Fc; cyno TRAIL-R2-Fc

cynomolgus TRAIL R2-Fc [9] = biological target: T3, cynomolgus TRAIL R2-Fc; experiment: competition ELISA: plate coated with F4 mod 1, cyno TRAIL R2-Fc, monomer as competitor
cynomolgus TRAIL R2-Fc [10] = biological target: T3, cynomolgus TRAIL R2-Fc; experiment: competition ELISA: plate coated with F4 mod 1, 0.75 nM cyno TRAIL R2-Fc, purified monomer as competitor
[11] = biological target: T2, human TRAIL R2-Fc fusion protein; experiment: capture ELISA: His-tagged construct captured from E. coli media on anti-His antibody, biotinylated TRAIL R2 (axis: TrailR2-Fc) titrated, streptavidin-HRP/TMB
Protocol: (§1) A 96-well MaxiSorb plate was coated with Qiagen anti-His antibody at 2 μg/ml overnight. The coated plate was blocked with PBS containing 0.1% v/v Tween-20 and 4% w/v skim milk powder (PBST 4% milk) for 1.5 hours. The coated plate was washed with PBST and diluted bacterial media (diluted 30-fold) containing soluble expressed proteins was added and plates were incubated at room temperature for 2 hours. […] The absorbance was read at 450 nm.

[12] = biological target: T4, TRAIL R2, recombinant (format not stated) (human, UniProt O14763 54-182, limits assumed, biotinylated in the ELISAs of paragraph 539 and paragraph 556); experiment: capture ELISA; Tn3 captured on anti-His, biotinylated TRAIL R2
T4 construct: also called biotinylated TRAIL R2; TRAIL R2 biotin
Protocol: as §1

[13] = biological target: T5, Human CD40L, recombinant (E. coli produced) (human, UniProt P29965 113-261, limits assumed, His-tagged (capture ELISA) or biotinylated (AlphaScreen)); experiment: capture ELISA: His-tagged construct captured from E. coli media on anti-His antibody, His-tagged HuCD40L preincubated with biotinylated anti-His antibody titrated, streptavidin-HRP/TMB
T5 construct: also called HuCD40L; huCD40L
T5 sequence (looked up): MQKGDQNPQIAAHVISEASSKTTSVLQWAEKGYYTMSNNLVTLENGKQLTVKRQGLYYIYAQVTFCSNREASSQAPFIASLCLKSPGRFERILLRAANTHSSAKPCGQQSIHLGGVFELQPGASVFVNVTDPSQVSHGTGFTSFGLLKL
Protocol: as §1

B1: A3 (1E11), tetravalent linear tandem Tn3 (designed binder)
chain: SGGGGSAIEVKDVTDTTALITWAKPWVDPPPLWGCELAYGIKDVPGDRTTIDLQQKHTAYSIGNLKPDTEYEVSLICFDPYGAKSNPAKETFTTGGGGSGGGGSGGGGSAIEVKDVTDTTALITWAKPWVDPPPLWGCELAYGIKDVPGDRTTIDLQQKHTAYSIGNLKPDTEYEVSLICFDPYGAKSNPAKETFTTGGGGSGGGGSGGGGSAIEVKDVTDTTALITWAKPWVDPPPLWGCELAYGIKDVPGDRTTIDLQQKHTAYSIGNLKPDTEYEVSLICFDPYGAKSNPAKETFTTGGGGSGGGGSGGGGSAIEVKDVTDTTALITWAKPWVDPPPLWGCELAYGIKDVPGDRTTIDLQQKHTAYSIGNLKPDTEYEVSLICFDPYGAKSNPAKETFTTGGGGSGGGGSGTLGHHHHHHHH
For B1, the “potency in inhibiting H2122 cell viability relative to A9” value [1] was roughly 150 fold, the IC50 [2] was 0.4 nM and the “fold higher affinity relative to the monomeric A1 protein” value [2] was 30 to 40 fold. For the same binder, the “fold lower IC50 than the monomer A1” value [2] was no less than 30 fold, the “Maximum Inhibition %, H2122” value [3] was 91% and the “Maximum Inhibition %, H2122” value [4] was 91%.

B2: F4, TRAIL R2-binding Tn3 monomer (designed binder)
chain: AIEVKDVTDTTALITWAKPWVDPPPLWGCELAYGIKDVPGDRTTIDLQQKHTAYSIGNLKPDTEYEVSLICFDPYGLKSRPAKETFTTGGGTLGHHHHHHHH
notes: also called clone F4; original F4
For B2, the IC50 [5] was 89 nM, the IC50 [6] was 89 nM and the “fold difference in binding among F4, F4 mod 1 and F4 mod 12” value (shortened to “fold difference in binding among F4”) [7] was no more than 6 fold.

B3: F4 mod 1, cyno cross reactive TRAIL R2-binding Tn3 monomer (designed binder)
chain: AIEVKDVTDTTALITWAKPWVDPPPLWGCELAYGIKDVPGDRTTIGLQQKHTAYSIGNLKPDTEYEVSLICFDPYGLKSRPAKETFTTGGGTLGHHHHHHHH
notes: F4 with a D to G mutation two amino acids before the DE loop; also called F4 mod 1 monomer
For B3, the IC50 [5] was 15 nM, the “fold difference in binding between F4 mod 1 and F4 mod 12” value (cynomolgus TRAIL R2-Fc [8]) was no more than 2 fold and the IC50 (cynomolgus TRAIL R2-Fc [9]) was 34 nM. The IC50 [6] was 15 nM, the “fold difference in binding among F4” value [7] was no more than 6 fold and the IC50 (cynomolgus TRAIL R2-Fc [10]) was 34 nM.

B4: F4 mod 12, germline engineered cyno cross reactive TRAIL R2-binding Tn3 monomer (designed binder)
chain: SQIEVKDVTDTTALITWAKPWVDPPPLWGCELTYGIKDVPGDRTTIGLQQKHNQYSIGNLKPDTEYEVSLICFDPYGLKSRPAKETFTTGLGTLGHHHHHHHH
notes: also called F4 mod 12 monomer
With B4 the “fold difference in binding between F4 mod 1 and F4 mod 12” value (cynomolgus TRAIL R2-Fc [8]) was no more than 2 fold, the IC50 (cynomolgus TRAIL R2-Fc [9]) was 50 nM and the IC50 [6] was 22 nM. For the same binder, the “fold difference in binding among F4” value [7] was no more than 6 fold.

B5: 79, monovalent human CD40L-specific Tn3 (designed binder)
chain: IEVKDVTDTTALITWIPPHNADSSIIGCELTYGIKDVPGDRTTIDLYDVAFDYSIGNLKPDTEYEVSLICDTFYGFDSNPAKETFTTGGGTLGHHHHHHHH
notes: 8xHis-tagged, captured from E. coli media; also called 79 (79); clone 79
B5: no binding (tested: 0.2 ug/ml) [11]; no binding [12].

B6: A1 (1E11), monovalent TRAIL R2-specific Tn3 scaffold (designed binder)
chain: AIEVKDVTDTTALITWAKPWVDPPPLWGCELAYGIKDVPGDRTTIDLQQKHTAYSIGNLKPDTEYEVSLICFDPYGAKSNPAKETFTTGGGTLGHHHHHHHH
notes: His-tagged monomer expressed in E. coli; also called 1E11 monomer
With B6 the IC50 [2] was 16 nM and the binding result [13] was “no binding (tested: 5.00E-02 ug/ml)”.

B7: A2 (1E11), bivalent linear tandem Tn3 (designed binder)
chain: SGGGGSAIEVKDVTDTTALITWAKPWVDPPPLWGCELAYGIKDVPGDRTTIDLQQKHTAYSIGNLKPDTEYEVSLICFDPYGAKSNPAKETFTTGGGGSGGGGSGGGGSAIEVKDVTDTTALITWAKPWVDPPPLWGCELAYGIKDVPGDRTTIDLQQKHTAYSIGNLKPDTEYEVSLICFDPYGAKSNPAKETFTTGGGGSGGGGSGTLGHHHHHHHH
In the case of B7, the IC50 [2] is reported as 0.5 nM, the “fold higher affinity relative to the monomeric A1 protein” value [2] is reported as 30 to 40 fold and the “fold lower IC50 than the monomer A1” value [2] is reported as no less than 30 fold.
